# Target: full-length AMC011 Env trimer (HIV-1)
# Assay: negative-stain EM
substance,measurement,value
PGT145 Fab,stoichiometry N (Fab per trimer),1
PGT151 Fab,stoichiometry N (Fab per trimer),2

# — article PMC6658011
